B1: GpH7-A5/GpH7-B3 variant S239_09D/GpL16-k0 (antibody, human IgG1, kappa)
heavy 1: not shown
heavy 2: not shown
light: DIVMTQSPLSLPVTPGEPASISCQASESLVHSNRNTYLHWYLQKPGQSPQLLIYKVSNRFSGVPDRFSGSGSGTDFTLKISRVEAEDVGVYYCSQNTHVPPTFGQGTKVEIERTVAAPSVFIFPPSDEQLKSGTASVVCLLNNFYPREAKVQWKVDNALQSGNSQESVTEQDSKDSTYSLSSTLTLSKADYEKHKVYACEVTHQGLSSPVTKSFNRGEC
notes: heterodimerized, mutation in one H chain only; also called He Ab
B2: GpH7-A5/GpH7-B3 variant T335_07I/GpL16-k0 (antibody, human IgG1, kappa)
heavy 1: not shown
heavy 2: not shown
light: DIVMTQSPLSLPVTPGEPASISCQASESLVHSNRNTYLHWYLQKPGQSPQLLIYKVSNRFSGVPDRFSGSGSGTDFTLKISRVEAEDVGVYYCSQNTHVPPTFGQGTKVEIERTVAAPSVFIFPPSDEQLKSGTASVVCLLNNFYPREAKVQWKVDNALQSGNSQESVTEQDSKDSTYSLSSTLTLSKADYEKHKVYACEVTHQGLSSPVTKSFNRGEC
notes: as for B1
B3: GpH7-A5/GpH7-B3 variant T335_01G/GpL16-k0 (antibody, human IgG1, kappa)
heavy 1: not shown
heavy 2: not shown
light: DIVMTQSPLSLPVTPGEPASISCQASESLVHSNRNTYLHWYLQKPGQSPQLLIYKVSNRFSGVPDRFSGSGSGTDFTLKISRVEAEDVGVYYCSQNTHVPPTFGQGTKVEIERTVAAPSVFIFPPSDEQLKSGTASVVCLLNNFYPREAKVQWKVDNALQSGNSQESVTEQDSKDSTYSLSSTLTLSKADYEKHKVYACEVTHQGLSSPVTKSFNRGEC
notes: as for B1
B4: GpH7-A5/GpH7-B3 variant S267_02A/GpL16-k0 (antibody, human IgG1, kappa)
heavy 1: not shown
heavy 2: not shown
light: DIVMTQSPLSLPVTPGEPASISCQASESLVHSNRNTYLHWYLQKPGQSPQLLIYKVSNRFSGVPDRFSGSGSGTDFTLKISRVEAEDVGVYYCSQNTHVPPTFGQGTKVEIERTVAAPSVFIFPPSDEQLKSGTASVVCLLNNFYPREAKVQWKVDNALQSGNSQESVTEQDSKDSTYSLSSTLTLSKADYEKHKVYACEVTHQGLSSPVTKSFNRGEC
notes: as for B1
B5: GpH7-A5/GpH7-B3 variant S337_10E/GpL16-k0 (antibody, human IgG1, kappa)
heavy 1: not shown
heavy 2: not shown
light: DIVMTQSPLSLPVTPGEPASISCQASESLVHSNRNTYLHWYLQKPGQSPQLLIYKVSNRFSGVPDRFSGSGSGTDFTLKISRVEAEDVGVYYCSQNTHVPPTFGQGTKVEIERTVAAPSVFIFPPSDEQLKSGTASVVCLLNNFYPREAKVQWKVDNALQSGNSQESVTEQDSKDSTYSLSSTLTLSKADYEKHKVYACEVTHQGLSSPVTKSFNRGEC
notes: as for B1
B6: GpH7-A5/GpH7-B3 variant S337_09D/GpL16-k0 (antibody, human IgG1, kappa)
heavy 1: not shown
heavy 2: not shown
light: DIVMTQSPLSLPVTPGEPASISCQASESLVHSNRNTYLHWYLQKPGQSPQLLIYKVSNRFSGVPDRFSGSGSGTDFTLKISRVEAEDVGVYYCSQNTHVPPTFGQGTKVEIERTVAAPSVFIFPPSDEQLKSGTASVVCLLNNFYPREAKVQWKVDNALQSGNSQESVTEQDSKDSTYSLSSTLTLSKADYEKHKVYACEVTHQGLSSPVTKSFNRGEC
notes: as for B1
B7: GpH7-A5/GpH7-B3 variant S324_02A/GpL16-k0 (antibody, human IgG1, kappa)
heavy 1: not shown
heavy 2: not shown
light: DIVMTQSPLSLPVTPGEPASISCQASESLVHSNRNTYLHWYLQKPGQSPQLLIYKVSNRFSGVPDRFSGSGSGTDFTLKISRVEAEDVGVYYCSQNTHVPPTFGQGTKVEIERTVAAPSVFIFPPSDEQLKSGTASVVCLLNNFYPREAKVQWKVDNALQSGNSQESVTEQDSKDSTYSLSSTLTLSKADYEKHKVYACEVTHQGLSSPVTKSFNRGEC
notes: as for B1
B8: GpH7-A5/GpH7-B3 variant T335_10E/GpL16-k0 (antibody, human IgG1, kappa)
heavy 1: not shown
heavy 2: not shown
light: DIVMTQSPLSLPVTPGEPASISCQASESLVHSNRNTYLHWYLQKPGQSPQLLIYKVSNRFSGVPDRFSGSGSGTDFTLKISRVEAEDVGVYYCSQNTHVPPTFGQGTKVEIERTVAAPSVFIFPPSDEQLKSGTASVVCLLNNFYPREAKVQWKVDNALQSGNSQESVTEQDSKDSTYSLSSTLTLSKADYEKHKVYACEVTHQGLSSPVTKSFNRGEC
notes: as for B1

The experiment addresses FcγRIIa H (human FcγRIIa, allotype with His at position 131), extracellular domain with C-terminal His tag (human, UniProt P12318 34-217). Description: SPR (Biacore), antibody captured on antigen peptide chip, FcγR as analyte; relative to HeCon Ab GpH7-A5/GpH7-B3/GpL16-k0 = 100. A general note: In SPR one partner is held on a chip, and binding of the other changes the refractive index at the surface.
The molecule B1 returned a He/Con_2aH of 114 control = 100.

B2 had a He/Con_2aH of 108 control = 100.

B3 returned a He/Con_2aH of 103 control = 100.

Take B4: the He/Con_2aH was found to be 120 control = 100.

The molecule B5 displayed a He/Con_2aH of 102 control = 100.

B6 gave a He/Con_2aH of 107 control = 100.

B7 showed a He/Con_2aH of 102 control = 100.

As to B8, the He/Con_2aH turned out to be 108 control = 100.

Values taken from patent US20180155451A1 (published 2018).
